Bridge positions count the residues as written; N and C are the ends. Square brackets hold non-standard residues; d marks the D form. Ends that are not written are not given here. * marks the point of attachment. FITC = O=C1OC2(c3ccc(O)cc3Oc3cc(O)ccc32)c2ccc(NC(=S)*)cc21; Ahx = NCCCCCC(=O)O
What was measured:
Aβ42 oligomer [1] = target: T1, Aβ42 oligomer (Homo sapiens, UniProt P05067); assay: Fluorescent anisotropy versus Aβ42 oligomer concentration; format: binding
Aβ42 oligomer [2] = target: T1, Aβ42 oligomer; assay: Streptavidin bead binding assay with gel electrophoresis detection; settings: column 4
Experimental: An assay is performed to analyze peptide probe binding to Aβ42 oligomer. The peptide probe is the same as the probe in EXAMPLE 8. Five samples are analyzed: (1) Aβ42 biotinylated oligomer as a positive control; (2) Aβ42 biotinylated oligomer bound to a bead via streptavidin; (3) peptide positive control; (4) peptide probe bound to Aβ42 biotinylated oligomer bound to a bead via streptavidin; and (5) peptide probe bound to a bead via streptavidin. Detection was by gel electrophoresis.

synthetic Aβ oligomer = target: T2, synthetic Aβ oligomer (Homo sapiens, UniProt P05067); assay: Fluorescence detection assay of synthetic Aβ oligomer spiked into human CSF; format: binding; settings: 10 mM HEPES pH 7.0; 0.005% NP-40; 10% normal human cerebrospinal fluid; 70 nM pyrenated peptide; 37° C.
T2 construct: The monomers can comprise one or more of Aβ3-42, Aβ37, Aβ38, Aβ39, Aβ40 and Aβ42; host or cells: synthetic peptide oligomer
T2 sequence (P05067 672-713 limits assumed): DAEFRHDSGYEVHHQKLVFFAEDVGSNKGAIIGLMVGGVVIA
Experimental: Samples of CSF from a normal human subject are spiked with different concentrations of synthetic Aβ oligomer, and subjected to fluorescence detection assay using peptide probe AD315 (SEQ ID NO:65). The detection is performed in an assay with the following conditions: 10 mM HEPES buffer at pH 7.0; 0.005% NP-40; 10% normal human cerebrospinal fluid; 70 nM pyrenated peptide; and 37° C. incubation.

Aβ oligomer [3] = target: T3, Aβ oligomer (Homo sapiens, UniProt P05067); assay: PLISA using PEP-11 peptide probes on Aβ monomer, oligomer and fiber; format: binding
T3 sequence (P05067 672-713 limits assumed): as above
Excerpt: PEP-11ds is also represented by SEQ ID NO:64, but has a disulfide bridge at the two cysteines.

Aβ oligomer [4] = target: T3, Aβ oligomer; assay: Peptide Linked Immunosorbent Assay (PLISA) compared with ELISA; format: binding; settings: ELISA with Aβ antibody 6E10 labeled with horse radish peroxidase
Excerpt: FIG. 7 depicts different formats for a PLISA as described herein. PLISA (A) depicts a sandwich format in which a target oligomer, such as an Aβ oligomer (SDS Oligo), binds to both surface-bound peptide probe (peptide) and peptide probe tagged with a label (Tag). The complex is detected using a labeled antibody (Anti-TagAb-label). PLISA (B) depicts a sandwich format in which the peptide probe tagged with a label is replaced by a labeled antibody (Ab-label) specific to the Aβ oligomer. PLISA (C) depicts a sandwich format in which the surface-bound peptide probe is replaced with an antibody specific to the Aβ oligomer (Ab-6E10). PLISA (D) depicts a competitive format in which Aβ oligomer in a biological sample competes with surface-bound Aβ oligomer for a labeled peptide probe. Each of PLISA (A)-(D) can use a solid-phase format (shown here as a bead, in which the bead is passed through an apparatus for detecting the labels).
Different concentrations of Aβ oligomer in solution are subjected to both PLISA and ELISA to determine the sensitivity of each assay, as measured by dose response curves. For the PLISA assay, the peptide probe used is AD317 (SEQ ID NO:41). For the ELSIA, the antibody used is Aβ antibody 6E10 labeled with horse radish peroxidase. […]

T1 sequence (P05067 672-713 limits assumed): as above

Substance: AD315: Salt bridge at G29H and G33E; PBA and NH2 additions; pyrenated peptide (KLVFFAEDVGSNKHAIIELMK-NH2; not fully specified (N-terminus); also: PBA addition, pyrene label)
- fluorescent anisotropy (milli-r) as a function of Aβ42 oligomer concentration (nN) (Aβ42 oligomer [1]): decreases as oligomer concentration increases
- binding of peptide probe to bead-bound Aβ42 biotinylated oligomer (Aβ42 oligomer [2]): can be used to detect Aβ42 oligomer
- fluorescence response to synthetic Aβ oligomer concentration (synthetic Aβ oligomer): linear, dose-dependent curve

Substance: Pep11-ds: represented by SEQ ID NO:64, but has a disulfide bridge at the two cysteines ({FITC}-[Ahx]CLVFFAEDVGSNKGAIIGLMC[dR][dR]; disulfide 2-22; not fully specified)
- preferential detection/binding of Aβ oligomer as compared to Aβ monomer or fiber (Aβ oligomer [3]): preferentially detect Aβ oligomer

Substance: AD317: P22, biotin labeled with thrombin site linker, at C-terminus (KLVFFAEDVGSNKHAIIELMKGLVPRGSGK; not fully specified (residue 30, C-terminus); also: biotin label at C-terminus via thrombin site linker, attachment place not given here)
- sensitivity for detecting Aβ oligomer, PLISA vs ELISA (dose response curves) (Aβ oligomer [4]): more sensitive assay for detecting Aβ oligomer than the ELISA

Substance: Pep11-a: consists of SEQ ID NO:64, at a purity of 86% (standard) ({FITC}-[Ahx]CLVFFAEDVGSNKGAIIGLMC[dR][dR]; not fully specified; cysteine pairing not given here)
- preferential detection/binding of Aβ oligomer as compared to Aβ monomer or fiber (Aβ oligomer [3]): preferentially detect Aβ oligomer

Substance: Pep11-b: consists of SEQ ID NO:64, at a purity of 95% (high) ({FITC}-[Ahx]CLVFFAEDVGSNKGAIIGLMC[dR][dR]; not fully specified; cysteine pairing not given here)
- preferential detection/binding of Aβ oligomer as compared to Aβ monomer or fiber (Aβ oligomer [3]): preferentially detect Aβ oligomer

Reference: patent US10139419B2, “Methods for detecting Aβ oligomers” (SYSTEM OF SYSTEMS ANALYTICS, INC., priority 2014, dated 2018)
